Measurements reported in the DeepSol protein solubility set.

Assay: soluble on expression in E. coli; label from the status in PepcDB or PDB records

| Sequence | soluble on expression in E. coli |
| --- | --- |
| SDEFVNLKETELRLGLPGTDNVCEAKERVSCCNNNNKRVLSTDTEKEIESSSRKTETSPPRKAQIVGWPPVRSYRKNNIQSKKNESEHEGQGIYVKVSMDGAPYLRKIDLSCYKGYSELLKALEVMFKFSVGEYFERDGYKGSDFVPTYEDKDGDWMLIGDVPWEMFICTCKRLRIMKGSEAKGLGCGV | soluble |
| MGSDKIHHHHHHMLTHYRDYESFKQVAIPLLERRPDVHQLPLGILERGDVPILMAIAEEGDRTIVVLQTIEEQAILAGDVFTYEGIRKLSRILNCPGYVGEQAIIEPLLASHSPFQIKMDQGIYTLTTVIPPVTLDYEFRLIEERFAPQAVAFGWSFIQETGALPATERSRLKNEQTIRKHIEAETLFGLFDGEQLLAMASSSRPTASGVTISYVFTPPKWRKQGIASYLVACLSEHLLQQYPMVSLYTDWSNKTSNKIYQAVGFELAGRSMQITKRPKYQ | not soluble |
| MAHHHHHHMASLKERDTVAPAEIVAGVTASGPAGISAEELHKVLNSSEHASVVVVDVRNADEYASFHIPGSINKPFQELNFAQLADEVAAHTNHAAHMLVFVSAQSPDVDDLAAREYINEYEKSHAATPTKDSVRVLLGGLYTWSQIYSA | soluble |
| SLEDYLQGCRAALQESRPLHVVLGNEACDLDSTVSALALAFYLAKTTEAEEVFVPVLNIKRSELPLRGDIVFFLQKVHIPESILIFRDEIDLHALYQAGQLTLILVDHHILSKSDTALEEAVAEVLDHRPIEPKHCPPCHVSVELVGSCATLVTERILQGAPEILDRQTAALLHGTIILDCVNMDLKIGKATPKDSKYVEKLEALFPDLPKRNDIFDSLQKAKFDVSGLTTEQMLRKDQKTIYRQGVKVAISAIYMDLEAFLQRSNLLADLHAFCQAHSYDVLVAMTIFFNTHNEPVRQLAIFCPHVALQTTICEVLERSHSPPLKLTPASSTHPNLHAYLQGNTQVSRKKLLPLLQEALSAYFDSMKIPSGQPETADVSREQVDKELDRASNSLISGLSQDEG | soluble |
| MLSKNLLEALNDQMNHEYFAAHAYMAMAAYCDKESYEGFANFFIQQAKEERFHGQKIYNYINDRGAHAEFRAVSAPKIDFSSILETFKDSLSQEQEVTRRFYNLSEIARQDKDYATISFLNWFLDEQVEEESMFETHINYLTRIGDDSNALYLYEKELGARTFDEE | not soluble |
| MATSGTYVTEVPLKGSAKNHYKRWKSENQLFPDAIGHHIQGVTVHEGDWDSHGAIKSWNYTCDGKQEVFKEKRELDDQKMAVTFRGLDGHVMEQLKVYDVIFQFVPKSQEGCVCKVTMFWEKRYEDSPEPIKYMKFVTSLAADMDDHILKNQSKA | soluble |
| MIITGSFGNGHLQVTQSVVNQFKEMNLDNLTVIEHDLFLEAHPILTSICKKWYINSFKYFRNMYKAFYYSQPDQLDKCFYKYYGLNKLMNLLLKEKPDLILLTFPTPVMSVLTEQFDMNIPIATVMTDYRMQKNWITPFSQRYYLATEELKDEFASIGIPKDKLKVTGIPISDKFELEHHHHHH | soluble |
| MARLTVHTLETAPEAAKPRVEAVPKNNGFIPNLIGVLANAPEALAFYQEVGKLNAANSLTAGEVEVIRIIAVRTNQCSFCVAGHTKLATLKKLLSEQSLNAARALAAGKSDDAKLGALAAFTQAVMAKKGAVSDDELNAFLEAGYNRQQAVEVVMGVALATLCNYANNLAQTEINPKLQAYA | not soluble |
| MKFTELTVKEFENFVQNPSLESHYFQVKENIATRESDGFQVVLLGVKDDDNRVIAASLFSKIPTMGSYVYYSNRGPVMDYSDLGLVDFYLKELDKYLHQHQCLYVKLDPYWLYQVYDKDINPLTEKNDALVNLFKSHGYDHHGFTTQYDSSSQVRWMGVLDLEGKTPASLRKEFDSQRKRNINKAINYGVKVRFLSKDEFGLFLDLYRETEARTGFASKTDDYFYNFIEHYGDKVLVPLAYIDLNEYIQHLQESLNDKENRRDDMMAKENKTDKQLKKIAELDKQIDHDKKELLQASELRQTDGEILNLASGVYFANAYEVNYFSGGSSEKYNQYMGPYAMHWHMINYCFDNGYDRYNFYGLSGDFTENSEDYGVYRFKRGFNVRIEELIGDFYKPINKVKYWLFNTLDRIRNKLKK | not soluble |
| FTSNKDERRWMVQCGSFRGAEQAETVRAQLAFEGFDSKITTNNGWNRVVIGPVKGKENADSTLNRLKMAGHTNCIRLAAGG | soluble |
| MGSDKIHHHHHHKTLAANAVFATAFVKRDGSFGAAILSEAGKVLHAIDLPDRGHDVTFDPISKRSVVFARQPGTFAVVFDHSGRDAPQTVASISGRHFFGHGVFSPDGALLYATENDFDNAAGVIGIYDARAKFSRVGEFPTYGMGPHELLLLGDGRTMAVANGGIETHPDYGRAELNIATMKPSYVLIDRVTGDLIEKHELPASLHQLSIRHMDTDPSGTVWFGCQYRGPGTDRPLLVGRAVRGKELQLLDMPQDVLSGFRNYIGSVAANLSAGSVAVSSPEGNSLVVIDAASGRVVSSSALVEVCGLAPDGSGFIATTGAGEIIEGSGATRSEPDYVWDNHMLRIERA | not soluble |
| MSENKNVQDTHISEQMKALHGALIRVVSALNRPRNDEKLIAEAGIQLDRALFSILISIERLGPIGVVELAERAGRDYTTVSRQVAKLEKLGLIIRQHNAIDRRIREAVISRTGKAMTERIDAAREQMGNVVFKDWPQDELDVFVRLMQKFADAMDSDASMPE | not soluble |
| MGSDKIHHHHHHMASPTVRRRQLSAILREMRKASGLSLDAVAARLEWSRAKVGHIETGQRKKPSVLEVKALMAEYGVTPEDPRYETVLMLTRQAQARGWWRRYDDLFPGSYIELEAEASEIRTYEAFVVPGLLQTPGYTRLLQQARLDRDPDDVERAVESRRKRQEIFDRTSPPAVYAIIEEHALERLRGTPDVLAEQVAHLLHMAGRNSVTLQVLRTRVGVHAGAMGPFVILDFPEPASPVVYLETYTDGLFLERREEIDQYRSLWDRIRDAALPPDRTVEFLRSLLTL | not soluble |
| MSLALDLLLLPTWLVPVEPAGVVLREHGLGIRDGHIVFIGPRAEALKYRATEIRELPDTLLTPGLINAHGHAAMTLFRGLADDLLLMTWLEKHIWPAEAKWVDEAFVRDGTDLAIAEQIKGGITCFSDMYFFPKVASERVHNSGMRAQVAIPILDFPIPGAQNADEAIRQGVELFGDLKHHPRINITFGPHAPYTVGDENLEKIRIIAEELDAAIHMHVHETAHEVQQSVEQHGERPLARLARLGLLGPRFQAVHMTQISDDDLALLVETNTSVIHCPESNLKLASGFCPVERLWQAGVNVAVGTDGAASNNDLDLLGETRTAALLAKAVAGSATALDAHRALRMATLNGARAMGLESQVGSLEIGKAADLTAFDLSGLAQQPIYDPVSQLIYATGRDCVKHVWVAGKQLLDDRCLTRLDEHQLGATARDWARRISGHEGHHHHHH | soluble |
| RTGAELLALTTSTGKSIAQLMWDNERAWHTEAETRTGLLKIWDVMQSCVARGCGIGNPDADGTLPGPFQVKRRAPQLYRALTGNPERALQDPLSMVDWINLYAIAVNEENAAGGRVVTAPTNGAAGIIPAVLHYYTRFTPGANEQGVIDFLMTAAAIGILYKLNASISGAEVGCQGEVGVACSMAAGALAAVLGGTPQQVENAAEIGMEHNLGLTCDPVGGMVQIPCIERNAMASVKAVNAARMALRGDGSHYVSLDSVIKTMRETGADMKTKYKETSRGGLAVN | not soluble |
| MINKDEEVANRFSDPSKKLVEYVTDFSDMRDEDIELTKPIYENYGNFQLLNETGIIRTDEEIKELYNCKGEFGSTDEVTDMSF | not soluble |
| MSLGSVKIVSDLPLQGANRAQTISMVNAIRLAIDQRGGKVAGLKIEYESLDDATAQSGQWDEGKCAENAQQAAQDEEIVGWIGPFNSGCAAVEIPILNEAGLVMISPANTYVGLTKEGGEPDEPDKYYPTGQRNYTRVIPADDKQGRLAAVLMREEGVRTVFILDDRETYGKGLADQVQKSAEEFGIEVVGRQGIDGSASNYRGLMNRVREANPDAIYFGGIIENNAGQLVRDKVGAGMPNDEVLFIGPDGIFVDTFIEQAGDAAEGAYVTFGGIPPERLGERGQRFIEEYNAKYPDDPIQAYTAYAYEAANVLLDAIERAQKADGEVNRENVLREVFATENYKGVLGTWSFDENGDTTLTKLSVQRVQNGEFKLDRVLDVSREGHHHHHH | soluble |
| MKRILCITGTRADFGKLKPLLAYIENHPDLELHLIVTGMHMMKTYGRTYKEVTRENYQHTYLFSNQIQGEPMGAVLGNTITFISRLSDEIEPDMVMIHGDRLEALAGAAVGALSSRLVCHIEGGELSGTVDDSIRHSISKLSHIHLVANEQAVTRLVQMGEKRKHIHIIGSPDLDVMASSTLPSLEEVKEYYGLPYENYGISMFHPVTTEAHLMPQYAAQYFKALELSGQNIISIYPNNDTGTESILQELLKYQSDKFIAFPSIRFEYFLVLLKHAKFMVGNSSAGIREAPLYGVPSIDVGTRQSNRHMGKSIIHTDYETKNIFDAIQQACSLGKFEADDTFNGGDTRTSTERFAEVINNPETWNVSAQKRFIDLNL | not soluble |
| LVPRGSAMGISNDSSRGANRTIVVTTILESPYVMYKKNHEQLEGNERYEGYCVDLAYEIAKHVRIKYKLSIVGDGKYGARDPETKIWNGMVGELVYGRADIAVAPLTITLVREEVIDFSKPFMSLGISIMIKKGTPIESAEDLAKQTEIAYGTLDSGSTKEFFRRSKIAVYEKMWSYMKSAEPSVFTKTTADGVARVRKSKGKFAFLLESTMNEYIEQRKPCDTMKVGGNLDSKGYGVATPKGSALGTPVNLAVLKLSEQGILDKLKNKWWYDKGECG | soluble |
| MNRFIMANSQQCLGCHACEVACVMAHNDERHVLTSQRYQPRITVIKHQHQRSAVTCHHCEDAPCARSCPNGAIAHINDSVQVNAQKCIGCKSCVVACPFGTMQMVLTPVAPNQFKASAHKCDLCQGREQGPACVENCPADALQLVTEDSLTRLAKTRRLRTARQEIRPWHTVDTQHSGAASSKAERMQATPPRGEPDKLAIEARKTTFEEIYLPFRAAQAEREASRCLTCGEHSICEWTCPLHNHIPQWIELVKAGDIDAAVELSHQTNCLPEITGRVCPQDRLCEGACTLRDEYGAVTIGNIERYISDRALSKGWRPDLSDVQKSDKRVAIIGAGPAGLACADVLARHGVSATVYDRHPEIGGLLTFGIPAFKLDKSLLARRREIFSAMGIRFELNCEVGKDISLETLLESYDAVFVGVGTYRSMKADLPNEDAPGVYDALPFLIANTKQVMGLPALPDEPFIDTAGLNVVVLGGGDTAMDCVRTALRHGAANVTCAYRRDEANMPGSKKEVKNAREEGANFEFNVQPVELVLDTHGRASGIRFLRTRLGEPDGQGRRRPVPVPDSEFVMPADAVIMAFGFHPHGMSWLESHGVKVDNWGRIAASVESEFRYQTSNPKIFAGGDAVRGADLVVTAMAEGRHAAQGILDWLAK | not soluble |
| MENELQDFPEPNYNVHAFYYVWYGSPQFDGKYVHWDHPLLPHWDPKVASSYSTGRHQPPEDIGANFYPALGPYSSRDPAVLEEHMRQLRMAAVGVLAVSWYPRSMKDDNGEEIDSLLPLILDAADKYQLKVLYNLYVFKNVICINKYV | not soluble |
| GSATASDSTRRVSVRDKLLVKEVAELEANLPCTCKVHFPDPNKLHCFQLTVTPDEGYYQGGKFQFETEVPDAYNMVPPKVKCLTKIWHPNITETGEICLSLLREHSIDGTGWAPTRTLKDVVWGLNSLFTDLLNFDDPLNIEAAEHHLRDKEDFRNKVDDYIKRYAR | soluble |
